Laboratory results: publication PMC9638024, “Functional rewiring of G protein-coupled receptor signaling in human labor” (Cell Reports, 2022)

Target: FLAG-tagged EP2, P43116
Experiment: PD-PALM (dual-color photoactivated localization microscopy with photoactivatable dyes); HEK 293 cells stably expressing FLAG-EP2 and transfected with HA-OTR; live labelling with anti-FLAG-CAGE 500 and anti-HA-CAGE 552, fixed, TIRF plane, 25 C; search radius 50 nm, Getis Franklin …
Details: other: PD-PALM (dual-color photoactivated localization microscopy with photoactivatable dyes)

FLAG-tagged EP2, P43116, sequence (P43116 whole entry): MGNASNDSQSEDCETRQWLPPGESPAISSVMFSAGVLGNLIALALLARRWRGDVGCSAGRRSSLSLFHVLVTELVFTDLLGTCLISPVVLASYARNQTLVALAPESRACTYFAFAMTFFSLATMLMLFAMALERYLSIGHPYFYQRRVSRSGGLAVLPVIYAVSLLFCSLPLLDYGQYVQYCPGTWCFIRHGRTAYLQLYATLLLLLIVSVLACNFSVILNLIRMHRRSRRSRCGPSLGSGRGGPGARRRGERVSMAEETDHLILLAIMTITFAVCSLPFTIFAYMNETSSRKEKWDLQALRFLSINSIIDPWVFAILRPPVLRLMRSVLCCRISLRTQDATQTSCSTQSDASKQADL

B1: hemagglutinin (HA)-tagged OTR (protein)
chain: MEGALAANWSAEAANASAAPPGAEGNRTAGPPRRNEALARVEVAVLCLILLLALSGNACVLLALRTTRQKHSRLFFFMKHLSIADLVVAVFQVLPQLLWDITFRFYGPDLLCRLVKYLQVVGMFASTYLLLLMSLDRCLAICQPLRSLRRRTDRLAVLATWLGCLVASAPQVHIFSLREVADGVFDCWAVFIQPWGPKAYITWITLAVYIVPVIVLAACYGLISFKIWQNLRLKTAAAAAAEAPEGAAAGDGGRVALARVSSVKLISKAKIRTVKMTFIIVLAFIVCWTPFFFVQMWSVWDANAPKEASAFIIVMLLASLNSCCNPWIYMLFTGHLFHELVQRFLCCSASYLKGRRLGETSASKKSNSSSFVLSHRSSSQRSCSQPSTA
With B1 the “percent of the heteromers that are heterodimers (basal)” value was “heterodimers (∼55% of the heteromers)”.
